Experimental data from US20260167699A1 (Chugai, published 2026).

Target: T1, FcγRIIIa (human, UniProt P08637 17-208)
T1 construct: extracellular domain; also called 3a; FcγRIIIa extracellular domain
Assay: SPR (Biacore);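 further: antibody variants captured on an SPR sensor chip, with FcγRIIIa passed over as analyte in HBS-EP+ buffer at 25 °C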

T1 sequence (P08637 other isoform, or with tags, fused parts or gaps): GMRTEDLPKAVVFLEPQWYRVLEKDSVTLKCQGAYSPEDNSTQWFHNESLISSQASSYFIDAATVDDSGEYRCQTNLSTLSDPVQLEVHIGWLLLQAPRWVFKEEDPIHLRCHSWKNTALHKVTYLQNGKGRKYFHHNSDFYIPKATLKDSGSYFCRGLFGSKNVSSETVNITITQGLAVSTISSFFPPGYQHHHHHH

He/Con 3a	Binder
88.5 % of GpH7-A5/GpH7-B3/GpL16-k0	GpH7-A5/GpH7-B3 variant L235_09D/GpL16-k0 (antibody, human IgG1, kappa, copies: 1 + 1 + 2) heavy 1: not shown heavy 2: not shown light: DIVMTQSPLSLPVTPGEPASISCQASESLVHSNRNTYLHWYLQKPGQSPQLLIYKVSNRFSGVPDRFSGSGSGTDFTLKISRVEAEDVGVYYCSQNTHVPPTFGQGTKVEIERTVAAPSVFIFPPSDEQLKSGTASVVCLLNNFYPREAKVQWKVDNALQSGNSQESVTEQDSKDSTYSLSSTLTLSKADYEKHKVYACEVTHQGLSSPVTKSFNRGEC
73.8 % of GpH7-A5/GpH7-B3/GpL16-k0	GpH7-A5/GpH7-B3 variant L235_20W/GpL16-k0 (antibody, human IgG1, kappa, copies: 1 + 1 + 2) heavy 1: not shown heavy 2: not shown light: DIVMTQSPLSLPVTPGEPASISCQASESLVHSNRNTYLHWYLQKPGQSPQLLIYKVSNRFSGVPDRFSGSGSGTDFTLKISRVEAEDVGVYYCSQNTHVPPTFGQGTKVEIERTVAAPSVFIFPPSDEQLKSGTASVVCLLNNFYPREAKVQWKVDNALQSGNSQESVTEQDSKDSTYSLSSTLTLSKADYEKHKVYACEVTHQGLSSPVTKSFNRGEC
80.8 % of GpH7-A5/GpH7-B3/GpL16-k0	GpH7-A5/GpH7-B3 variant L328_06M/GpL16-k0 (antibody, human IgG1, kappa, copies: 1 + 1 + 2) heavy 1: not shown heavy 2: not shown light: DIVMTQSPLSLPVTPGEPASISCQASESLVHSNRNTYLHWYLQKPGQSPQLLIYKVSNRFSGVPDRFSGSGSGTDFTLKISRVEAEDVGVYYCSQNTHVPPTFGQGTKVEIERTVAAPSVFIFPPSDEQLKSGTASVVCLLNNFYPREAKVQWKVDNALQSGNSQESVTEQDSKDSTYSLSSTLTLSKADYEKHKVYACEVTHQGLSSPVTKSFNRGEC
68.6 % of GpH7-A5/GpH7-B3/GpL16-k0	GpH7-A5/GpH7-B3 variant L235_05P/GpL16-k0 (antibody, human IgG1, kappa, copies: 1 + 1 + 2) heavy 1: not shown heavy 2: not shown light: DIVMTQSPLSLPVTPGEPASISCQASESLVHSNRNTYLHWYLQKPGQSPQLLIYKVSNRFSGVPDRFSGSGSGTDFTLKISRVEAEDVGVYYCSQNTHVPPTFGQGTKVEIERTVAAPSVFIFPPSDEQLKSGTASVVCLLNNFYPREAKVQWKVDNALQSGNSQESVTEQDSKDSTYSLSSTLTLSKADYEKHKVYACEVTHQGLSSPVTKSFNRGEC
57.1 % of GpH7-A5/GpH7-B3/GpL16-k0	GpH7-A5/GpH7-B3 variant L235_16H/GpL16-k0 (antibody, human IgG1, kappa, copies: 1 + 1 + 2) heavy 1: not shown heavy 2: not shown light: DIVMTQSPLSLPVTPGEPASISCQASESLVHSNRNTYLHWYLQKPGQSPQLLIYKVSNRFSGVPDRFSGSGSGTDFTLKISRVEAEDVGVYYCSQNTHVPPTFGQGTKVEIERTVAAPSVFIFPPSDEQLKSGTASVVCLLNNFYPREAKVQWKVDNALQSGNSQESVTEQDSKDSTYSLSSTLTLSKADYEKHKVYACEVTHQGLSSPVTKSFNRGEC
92.8 % of GpH7-A5/GpH7-B3/GpL16-k0	GpH7-A5/GpH7-B3 variant L235_07I/GpL16-k0 (antibody, human IgG1, kappa, copies: 1 + 1 + 2) heavy 1: not shown heavy 2: not shown light: DIVMTQSPLSLPVTPGEPASISCQASESLVHSNRNTYLHWYLQKPGQSPQLLIYKVSNRFSGVPDRFSGSGSGTDFTLKISRVEAEDVGVYYCSQNTHVPPTFGQGTKVEIERTVAAPSVFIFPPSDEQLKSGTASVVCLLNNFYPREAKVQWKVDNALQSGNSQESVTEQDSKDSTYSLSSTLTLSKADYEKHKVYACEVTHQGLSSPVTKSFNRGEC
77.4 % of GpH7-A5/GpH7-B3/GpL16-k0	GpH7-A5/GpH7-B3 variant L328_14T/GpL16-k0 (antibody, human IgG1, kappa, copies: 1 + 1 + 2) heavy 1: not shown heavy 2: not shown light: DIVMTQSPLSLPVTPGEPASISCQASESLVHSNRNTYLHWYLQKPGQSPQLLIYKVSNRFSGVPDRFSGSGSGTDFTLKISRVEAEDVGVYYCSQNTHVPPTFGQGTKVEIERTVAAPSVFIFPPSDEQLKSGTASVVCLLNNFYPREAKVQWKVDNALQSGNSQESVTEQDSKDSTYSLSSTLTLSKADYEKHKVYACEVTHQGLSSPVTKSFNRGEC
80.9 % of GpH7-A5/GpH7-B3/GpL16-k0	GpH7-A5/GpH7-B3 variant L328_03V/GpL16-k0 (antibody, human IgG1, kappa, copies: 1 + 1 + 2) heavy 1: not shown heavy 2: not shown light: DIVMTQSPLSLPVTPGEPASISCQASESLVHSNRNTYLHWYLQKPGQSPQLLIYKVSNRFSGVPDRFSGSGSGTDFTLKISRVEAEDVGVYYCSQNTHVPPTFGQGTKVEIERTVAAPSVFIFPPSDEQLKSGTASVVCLLNNFYPREAKVQWKVDNALQSGNSQESVTEQDSKDSTYSLSSTLTLSKADYEKHKVYACEVTHQGLSSPVTKSFNRGEC
85.6 % of GpH7-A5/GpH7-B3/GpL16-k0	GpH7-A5/GpH7-B3 variant L235_10E/GpL16-k0 (antibody, human IgG1, kappa, copies: 1 + 1 + 2) heavy 1: not shown heavy 2: not shown light: DIVMTQSPLSLPVTPGEPASISCQASESLVHSNRNTYLHWYLQKPGQSPQLLIYKVSNRFSGVPDRFSGSGSGTDFTLKISRVEAEDVGVYYCSQNTHVPPTFGQGTKVEIERTVAAPSVFIFPPSDEQLKSGTASVVCLLNNFYPREAKVQWKVDNALQSGNSQESVTEQDSKDSTYSLSSTLTLSKADYEKHKVYACEVTHQGLSSPVTKSFNRGEC
65 % of GpH7-A5/GpH7-B3/GpL16-k0	GpH7-A5/GpH7-B3 variant L235_18N/GpL16-k0 (antibody, human IgG1, kappa, copies: 1 + 1 + 2) heavy 1: not shown heavy 2: not shown light: DIVMTQSPLSLPVTPGEPASISCQASESLVHSNRNTYLHWYLQKPGQSPQLLIYKVSNRFSGVPDRFSGSGSGTDFTLKISRVEAEDVGVYYCSQNTHVPPTFGQGTKVEIERTVAAPSVFIFPPSDEQLKSGTASVVCLLNNFYPREAKVQWKVDNALQSGNSQESVTEQDSKDSTYSLSSTLTLSKADYEKHKVYACEVTHQGLSSPVTKSFNRGEC
73.2 % of GpH7-A5/GpH7-B3/GpL16-k0	GpH7-A5/GpH7-B3 variant L235_14T/GpL16-k0 (antibody, human IgG1, kappa, copies: 1 + 1 + 2) heavy 1: not shown heavy 2: not shown light: DIVMTQSPLSLPVTPGEPASISCQASESLVHSNRNTYLHWYLQKPGQSPQLLIYKVSNRFSGVPDRFSGSGSGTDFTLKISRVEAEDVGVYYCSQNTHVPPTFGQGTKVEIERTVAAPSVFIFPPSDEQLKSGTASVVCLLNNFYPREAKVQWKVDNALQSGNSQESVTEQDSKDSTYSLSSTLTLSKADYEKHKVYACEVTHQGLSSPVTKSFNRGEC
77.8 % of GpH7-A5/GpH7-B3/GpL16-k0	GpH7-A5/GpH7-B3 variant L235_15Y/GpL16-k0 (antibody, human IgG1, kappa, copies: 1 + 1 + 2) heavy 1: not shown heavy 2: not shown light: DIVMTQSPLSLPVTPGEPASISCQASESLVHSNRNTYLHWYLQKPGQSPQLLIYKVSNRFSGVPDRFSGSGSGTDFTLKISRVEAEDVGVYYCSQNTHVPPTFGQGTKVEIERTVAAPSVFIFPPSDEQLKSGTASVVCLLNNFYPREAKVQWKVDNALQSGNSQESVTEQDSKDSTYSLSSTLTLSKADYEKHKVYACEVTHQGLSSPVTKSFNRGEC
